According to patent US20140112930A1 (published 2014):

Tests used:
hAng-1-WT [1] = biological target: T1, hAng-1-WT (human, UniProt Q15389 20-498, limits assumed); test: SPR, 1 uM blocker premixed with 10 nM hAng-1-WT, over hTie-2-mFc surface; RU of hAng-1 bound
T1 construct: a tag is not mentioned there; also called full-length wild-type human Ang-1
T1 sequence (looked up): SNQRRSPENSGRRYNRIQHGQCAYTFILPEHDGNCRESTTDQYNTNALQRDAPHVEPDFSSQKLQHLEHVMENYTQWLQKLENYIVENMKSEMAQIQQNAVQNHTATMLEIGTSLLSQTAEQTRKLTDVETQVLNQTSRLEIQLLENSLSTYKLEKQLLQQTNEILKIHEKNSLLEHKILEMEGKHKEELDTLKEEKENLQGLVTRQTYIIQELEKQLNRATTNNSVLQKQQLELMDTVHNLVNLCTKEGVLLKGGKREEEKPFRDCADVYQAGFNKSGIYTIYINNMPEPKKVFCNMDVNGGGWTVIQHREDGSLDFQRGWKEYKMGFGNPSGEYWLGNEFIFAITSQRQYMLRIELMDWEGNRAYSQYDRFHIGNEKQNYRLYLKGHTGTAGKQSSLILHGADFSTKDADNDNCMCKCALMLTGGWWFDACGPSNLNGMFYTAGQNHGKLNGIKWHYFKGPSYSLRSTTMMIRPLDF
Description: (§1) In this experiment, a human Tie-2 full-length extracellular domain construct (hTie-2-mFc-ecto) was amine-coupled on a BIACORE™ chip to create a receptor coated surface. […] The equilibrated solutions were injected over the receptor surfaces at 5 μL/min for 5 minutes at 25° C.

hAng-1-WT [2] = biological target: T1, hAng-1-WT; test: SPR, 1 uM blocker premixed with 10 nM hAng-1-WT, over hTie-2-mFc surface
Description: as §1

Mouse Ang-2FD-hFc = biological target: T2, Mouse Ang-2FD-hFc (mouse (Mus musculus)); test: blocking ELISA, 16.67 nM antibody, Ang-2FD-hFc to coated hTie-2-mFc
T2 construct: also called dimeric mouse Ang-2FD
T2 sequence (chain, as listed by the source limits assumed): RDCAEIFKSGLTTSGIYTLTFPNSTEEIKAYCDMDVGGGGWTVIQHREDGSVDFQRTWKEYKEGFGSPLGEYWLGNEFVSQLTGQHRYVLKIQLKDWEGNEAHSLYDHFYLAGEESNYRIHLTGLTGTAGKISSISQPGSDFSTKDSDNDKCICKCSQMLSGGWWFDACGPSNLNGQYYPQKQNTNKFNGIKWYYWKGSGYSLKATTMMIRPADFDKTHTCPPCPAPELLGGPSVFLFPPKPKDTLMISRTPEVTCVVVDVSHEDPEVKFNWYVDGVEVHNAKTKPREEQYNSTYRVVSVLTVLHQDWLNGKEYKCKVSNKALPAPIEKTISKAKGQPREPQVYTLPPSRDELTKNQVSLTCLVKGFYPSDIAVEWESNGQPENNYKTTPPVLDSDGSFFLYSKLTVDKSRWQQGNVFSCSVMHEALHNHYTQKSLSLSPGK

Monkey Ang-2FD-hFc = biological target: T3, Monkey Ang-2FD-hFc (monkey (Macca fascicularis)); test: as above
T3 construct: also called dimeric monkey Ang-2FD
T3 sequence (chain, as listed by the source limits assumed): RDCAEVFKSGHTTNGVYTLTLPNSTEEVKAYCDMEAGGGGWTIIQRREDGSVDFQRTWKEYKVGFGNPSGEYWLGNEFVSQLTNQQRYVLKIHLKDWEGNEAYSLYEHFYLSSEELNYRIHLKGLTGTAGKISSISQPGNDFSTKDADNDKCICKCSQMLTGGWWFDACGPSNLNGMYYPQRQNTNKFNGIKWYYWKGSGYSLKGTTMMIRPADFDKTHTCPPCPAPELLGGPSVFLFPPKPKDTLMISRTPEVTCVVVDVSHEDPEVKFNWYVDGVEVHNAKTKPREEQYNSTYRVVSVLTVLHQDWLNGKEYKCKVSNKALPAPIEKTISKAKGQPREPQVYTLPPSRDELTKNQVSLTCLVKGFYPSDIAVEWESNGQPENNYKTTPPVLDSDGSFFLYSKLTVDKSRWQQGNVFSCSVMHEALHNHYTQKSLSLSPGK

Human Ang-2FD-hFc = biological target: T4, Human Ang-2FD-hFc (human); test: as above
T4 construct: also called dimeric human Ang-2FD; human Ang-2FD protein conjugated to human IgG
T4 sequence (chain, as listed by the source limits assumed): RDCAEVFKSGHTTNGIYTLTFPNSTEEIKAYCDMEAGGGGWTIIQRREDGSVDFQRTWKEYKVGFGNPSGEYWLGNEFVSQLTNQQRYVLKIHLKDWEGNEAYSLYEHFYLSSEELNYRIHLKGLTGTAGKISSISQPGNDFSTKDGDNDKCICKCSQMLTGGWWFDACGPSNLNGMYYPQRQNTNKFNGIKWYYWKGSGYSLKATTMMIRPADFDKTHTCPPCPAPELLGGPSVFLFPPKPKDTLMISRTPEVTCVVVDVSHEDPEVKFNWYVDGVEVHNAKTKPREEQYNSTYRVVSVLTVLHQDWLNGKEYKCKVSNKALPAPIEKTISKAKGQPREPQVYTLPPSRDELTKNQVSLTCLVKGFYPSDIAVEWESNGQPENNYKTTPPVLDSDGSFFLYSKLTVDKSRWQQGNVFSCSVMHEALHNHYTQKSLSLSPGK

Biotin-hBA2 = biological target: T5, Biotin-hBA2 (human, biotinylated (sites not given)); test: blocking ELISA, biotin-hBA2 to hTie-2
T5 construct: hBA2 consists of two dimers; also called biotinylated hBA2; human bow-Ang2
T5 sequence (chain, as listed by the source limits assumed): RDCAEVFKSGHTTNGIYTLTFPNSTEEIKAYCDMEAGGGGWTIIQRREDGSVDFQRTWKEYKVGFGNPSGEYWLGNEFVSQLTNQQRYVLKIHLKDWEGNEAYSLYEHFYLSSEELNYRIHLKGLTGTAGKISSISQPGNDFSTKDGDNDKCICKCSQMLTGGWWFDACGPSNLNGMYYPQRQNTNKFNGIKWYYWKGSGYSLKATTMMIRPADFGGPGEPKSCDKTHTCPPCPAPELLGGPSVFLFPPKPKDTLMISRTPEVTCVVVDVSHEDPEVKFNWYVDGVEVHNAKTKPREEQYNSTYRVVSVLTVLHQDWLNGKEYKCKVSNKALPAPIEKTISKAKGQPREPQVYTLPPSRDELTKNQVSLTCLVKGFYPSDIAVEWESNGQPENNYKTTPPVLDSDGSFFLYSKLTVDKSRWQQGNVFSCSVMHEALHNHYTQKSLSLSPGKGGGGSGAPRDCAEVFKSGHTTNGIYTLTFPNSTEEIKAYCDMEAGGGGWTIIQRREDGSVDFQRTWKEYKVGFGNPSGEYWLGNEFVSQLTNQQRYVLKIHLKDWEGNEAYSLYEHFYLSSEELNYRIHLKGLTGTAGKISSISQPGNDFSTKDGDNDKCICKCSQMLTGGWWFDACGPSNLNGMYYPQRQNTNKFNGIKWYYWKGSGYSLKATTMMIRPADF

[3] = biological target: T6, Dimeric Mouse Ang-2FD conjugated to human IgG1 (mouse (Mus musculus); human); test: SPR, captured Ab, 37°C
T6 construct: also called Mouse Ang-2FD-hFc
Description: (§2) Each selected antibody or control construct was captured at a flow rate of 40 μL/min for 1 minute on a goat anti-human kappa polyclonal antibody surface created through direct chemical coupling to a BIACORE™ chip to form a captured antibody surface.

[4] = biological target: T6, Dimeric Mouse Ang-2FD conjugated to …; test: SPR, captured Ab, 25°C
Description: as §2

[5] = biological target: T6, Dimeric Mouse Ang-2FD conjugated to …; test: SPR, captured Ab, RT
Outline: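 Antibody captured on amine-coupled goat anti-mouse IgG, anti-human κ or anti-human IgG polyclonal surfaces on a CM5 chip; antigen binding and dissociation followed in real time at room temperature. KD and complex dissociation half-life derived by kinetic analysis.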

B1: hTie-2-mFc (Fc fusion)
chain: AMDLILINSLPLVSDAETSLTCIASGWRPHEPITIGRDFEALMNQHQDPLEVTQDVTREWAKKVVWKREKASKINGAYFCEGRVRGEAIRIRTMKMRQQASFLPATLTMTVDKGDNVNISFKKVLIKEEDAVIYKNGSFIHSVPRHEVPDILEVHLPHAQPQDAGVYSARYIGGNLFTSAFTRLIVRRCEAQKWGPECNHLCTACMNNGVCHEDTGECICPPGFMGRTCEKACELHTFGRTCKERCSGQEGCKSYVFCLPDPYGCSCATGWKGLQCNEACHPGFYGPDCKLRCSCNNGEMCDRFQGCLCSPGWQGLQCEREGIPRMTPKIVDLPDHIEVNSGKFNPICKASGWPLPTNEEMTLVKPDGTVLHPKDFNHTDHFSVAIFTIHRILPPDSGVWVCSVNTVAGMVEKPFNISVKVLPKPLNAPNVIDTGHNFAVINISSEPYFGDGPIKSKKLLYKPVNHYEAWQHIQVTNEIVTLNYLEPRTEYELCVQLVRRGEGGEGHPGPVRRFTTASIGLPPPRGLNLLPKSQTTLNLTWQPIFPSSEDDFYVEVERRSVQKSDQQNIKVPGNLTSVLLNNLHPREQYVVRARVNTKAQGEWSEDLTAWTLSDILPPQPENIKISNITHSSAVISWTILDGYSISSITIRYKVQGKNEDQHVDVKIKNATIIQYQLKGLEPETAYQVDIFAENNIGSSNPAFSHELVTLPESQAPADLGGGKGPGEPRGPTIKPCPPCKCPAPNLLGGPSVFIFPPKIKDVLMISLSPIVTCVVVDVSEDDPDVQISWFVNNVEVHTAQTQTHREDYNSTLRVVSALPIQHQDWMSGKEFKCKVNNKDLPAPIERTISKPKGSVRAPQVYVLPPPEEEMTKKQVTLTCMVTDFMPEDIYVEWTNNGKTELNYKNTEPVLDSDGSYFMYSKLRVEKKNWVERNSYSCSVVHEGLHNHHTTKSFSRTPGK
notes: also called hTie-2-mFc-ecto; human Tie-2 conjugated to mouse IgG
How did the “RU (average)” value (hAng-1-WT [1]) turn out when B1 was run?
The value was 71 RU.

What about the “Percent of Negative Control Binding” value (hAng-1-WT [2]) of the same binder?
Its value is 42%.

B2: H1H724N (antibody, V domains shown)
VH: QVQLVESGGGVVQPGRSLRLSCAASGFTLSNYGMHWVRQAPGKGLEWVAVIWHDGSNTYYADSVKGRFTISRDNSKNTLYLQMNSLRAEDTAVYYCTREGLDFWSGYYPNWFDPWGQGTLVTVSS
VL: DIQMTQSPSSLSASVGDRVTITCRASQGIRNDLGWYQQKPGKAPKRLIYAASNLQGGVPSRFSGSGSGTEFTLTISSLQPEDFAAYYCLQHNIYPLTFGGGTKVEIK
Which results are given for B2?
Percent Blocking of Ang-2FD Binding to Tie-2 (Mouse Ang-2FD-hFc): 97.1%; Percent Blocking of Ang-2FD Binding to Tie-2 (Monkey Ang-2FD-hFc): 96.6%; Percent Blocking of Ang-2FD Binding to Tie-2 (Human Ang-2FD-hFc): 96.6%; IC50 (Biotin-hBA2): 0.004 nM; RU (average) (hAng-1-WT [1]): 57 RU; Percent of Negative Control Binding (hAng-1-WT [2]): 34%

B3: H1H690P (antibody, human IgG1, V domains shown)
VH: EVQLVESGGGLVQPGESLRLSCAASGFTFSSYAMSWVRQGPGKGLEWVSSITGSGDTTYYADSVKGRFTISRDNSKNTLYLHMNSLRAEDTAVYYCAKDFLDYSTYLAFDLWGQGTMVTVSS
VL: EIVLTQSPATLSLSPGERATLSCRASQSVSSYLTWYQQKPGQAPRLLSYDASNRATGIPARFSGSGSGTDFTLTISSLEPEDFAVYYCQQRSNWPLTFGGGTKVEIK
notes: Human IgG1
B3 was tested. Which “Percent Blocking of Ang-2FD Binding to Tie-2” value (from here on “Percent Blocking”) (Mouse Ang-2FD-hFc) did it give?
The value was 98%.

What about the “Percent Blocking” value (Monkey Ang-2FD-hFc) of the same binder?
Its value is 99.6%.

What about the “Percent Blocking” value (Human Ang-2FD-hFc) of the same binder?
The value was 97.2%.

And the IC50 (Biotin-hBA2)?
Its IC50 is 0.017 nM.

B4: H1H706P (antibody, human IgG1, V domains shown)
VH: QVQLVESGGGVVQPGRSLRLSCAASGFTFSSYGMHWVRQAPDKGLEWVAVKWDDGSNKYYADSVKGRFTISRDNSKNTLYLQMNSLRAEDTAVYYCAREGPYDFYSGYGAFDIWGQGTMVTVSS
VL: DIQMTQSPSSLSASVGDRVTITCRASQGISNYLAWFQQKPGKAPKSLIYAASSLQSGVPSKFSGSGSGTDFTLTISSLQPEDFATYYCQQYNSYPRTFGQGTKVEIK
notes: Human IgG1
With B4 as the binder, how does the “Percent Blocking” value (Mouse Ang-2FD-hFc) read?
Its value is 95.9%.

What about the “Percent Blocking” value (Monkey Ang-2FD-hFc) of the same binder?
Its value is 99.8%.

What about the “Percent Blocking” value (Human Ang-2FD-hFc) of the same binder?
The value was 97.1%.

And the IC50 (Biotin-hBA2)?
Its IC50 is 0.008 nM.

What about the “RU (average)” value (hAng-1-WT [1]) of the same binder?
Its value is 140 RU.

What about the “Percent of Negative Control Binding” value (hAng-1-WT [2]) of the same binder?
Its value is 83%.

B5: H1H685P (antibody, V domains shown)
VH: EVQLVESGGGLVQPGGSLRLSCAASGFTFSSYDIHWVRQATGKGLEWVSAIGPAGDTYYPGSVKGRFTISRENAKNSLYLQMNSLRAGDTAVYYCARGLITFGGLIAPFDYWGQGTLVTVSS
VL: EIVLTQSPGTLSLSPGERATLSCRASQSVSSTYLAWYQQKPGQAPRLLIYGASSRATGIPDRFSGSGSGTDFTLTISRLEPEDFAVYYCQHYDNSQTFGQGTKVEIK
With B5 as the binder, how does the Kd [3] read?
Its Kd is 0.0939 nM.

What about the T1/2 [3] of the same binder?
The T1/2 was 1.07 h.

What about the Kd [4] of the same binder?
Its Kd is 0.0651 nM.

What about the T1/2 [4] of the same binder?
The T1/2 was 3.47 h.

What about the Kd [5] of the same binder?
The Kd was 0.148 nM.

And the T1/2 [5]?
The T1/2 was 2.14 h.
